Values belong to the binder of their own block, whether it stands above or below them.
B2: vitamin D binding protein (DBP) alone, without added vitamin D metabolite (ligand, human, UniProt P02774 17-474, looked up)
chain: LERGRDYEKNKVCKEFSHLGKEDFTSLSLVLYSRKFPSGTFEQVSQLVKEVVSLTEACCAEGADPDCYDTRTSALSAKSCESNSPFPVHPGTAECCTKEGLERKLCMAALKHQPQEFPTYVEPTNDEICEAFRKDPKEYANQFMWEYSTNYGQAPLSLLVSYTKSYLSMVGSCCTSASPTVCFLKERLQLKHLSLLTTLSNRVCSQYAAYGEKKSRLSNLIKLAQKVPTADLEDVLPLAEDITNILSKCCESASEDCMAKELPEHTVKLCDNLSTKNSKFEDCCQEKTAMDVFVCTYFMPAAQLPELPDVELPTNKDVCDPGNTKVMDKYTFELSRRTHLPEVFLSKVLEPTLKSLGECCDVEDSTTCFNAKGPLLKKELSSFIDKGQELCADYSENTFTEYKKKLAERLKAKLPDATPTELAKLVNKHSDFASNCCSINSPPLYCDSEIDAELKNIL
notes: also called apoprotein DBP; non-complexed DBP
B3: complex of vitamin D binding protein with 25-hydroxyvitamin D3 (DBP:25(OH)D3) (ligand, human, UniProt P02774 17-474, looked up)
chain: LERGRDYEKNKVCKEFSHLGKEDFTSLSLVLYSRKFPSGTFEQVSQLVKEVVSLTEACCAEGADPDCYDTRTSALSAKSCESNSPFPVHPGTAECCTKEGLERKLCMAALKHQPQEFPTYVEPTNDEICEAFRKDPKEYANQFMWEYSTNYGQAPLSLLVSYTKSYLSMVGSCCTSASPTVCFLKERLQLKHLSLLTTLSNRVCSQYAAYGEKKSRLSNLIKLAQKVPTADLEDVLPLAEDITNILSKCCESASEDCMAKELPEHTVKLCDNLSTKNSKFEDCCQEKTAMDVFVCTYFMPAAQLPELPDVELPTNKDVCDPGNTKVMDKYTFELSRRTHLPEVFLSKVLEPTLKSLGECCDVEDSTTCFNAKGPLLKKELSSFIDKGQELCADYSENTFTEYKKKLAERLKAKLPDATPTELAKLVNKHSDFASNCCSINSPPLYCDSEIDAELKNIL
notes: Same protein as m4, occupied by the small molecule 25(OH)D3; Both are treated as this one entry; also called DBP:VD3; DBP/VD3
B5: soluble recombinant megalin M2 fragment (amino acids 1024-1429 of human LRP2/megalin, C-terminal 6x His tag) (receptor)
chain: EQCGLFSFPCKNGRCVPNYYLCDGVDDCHDNSDEQLCGTLNNTCSSSAFTCGHGECIPAHWRCDKRNDCVDGSDEHNCPTHAPASCLDTQYTCDNHQCISKNWVCDTDNDCGDGSDEKNCNSTETCQPSQFNCPNHRCIDLSFVCDGDKDCVDGSDEVGCVLNCTASQFKCASGDKCIGVTNRCDGVFDCSDNSDEAGCPTRPPGMCHSDEFQCQEDGICIPNFWECDGHPDCLYGSDEHNACVPKTCPSSYFHCDNGNCIHRAWLCDRDNDCGDMSDEKDCPTQPFRCPSWQWQCLGHNICVNLSVVCDGIFDCPNGTDESPLCNGNSCSDFNGGCTHECVQEPFGAKCLCPLGFLLANDSKTCEDIDECDILGSCSQHCYNMRGSFRCSCDTGYMLESDGRTCKHHHHHH
notes: Expressed in and secreted by HEK cells, with the signal peptide removed; It tends to dimerise and is the fragment most easily dissociated to monomer; also called E1024-K1429

Key:
[1] = molecular target: B5; assay: microscale thermophoresis; NT-647-labelled DBP mixed with 1,25(OH)VD3; purified megalin M2 titrated (set-up as in paragraph 103)
[2] = molecular target: T1, soluble recombinant megalin M3 fragment (amino acids 2698 to 3192 of human LRP2/megalin, C-terminal 6x His … (human, UniProt P98164 2698-3192)); assay: co-immunoprecipitation with lysate of HEK cells expressing M3; pull-down with anti-His antibody beads; Western blot with anti-DBP antibody
T1 construct: Expressed in HEK 293 cells and secreted, with the signal peptide removed; It tends to dimerise; also called E2698-R3192
T1 sequence: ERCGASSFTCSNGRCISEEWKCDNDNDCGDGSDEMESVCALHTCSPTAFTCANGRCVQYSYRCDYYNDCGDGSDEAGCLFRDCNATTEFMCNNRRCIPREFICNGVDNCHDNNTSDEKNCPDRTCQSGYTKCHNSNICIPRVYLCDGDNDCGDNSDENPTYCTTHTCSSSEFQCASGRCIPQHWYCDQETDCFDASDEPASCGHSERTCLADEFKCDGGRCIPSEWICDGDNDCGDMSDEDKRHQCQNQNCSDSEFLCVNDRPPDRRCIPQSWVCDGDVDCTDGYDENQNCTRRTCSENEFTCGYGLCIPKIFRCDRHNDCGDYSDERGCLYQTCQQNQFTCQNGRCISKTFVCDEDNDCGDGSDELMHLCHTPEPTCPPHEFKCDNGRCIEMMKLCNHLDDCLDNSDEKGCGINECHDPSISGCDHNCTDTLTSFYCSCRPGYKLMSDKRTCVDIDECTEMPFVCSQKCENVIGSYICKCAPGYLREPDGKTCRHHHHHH

[3] = molecular target: B5; assay: peptide array of megalin M2 region; major binding epitopes of megalin ligands
[4] = molecular target: B3; assay: MST, NT-647-labelled DBP (50 nM) mixed with 25(OH)VD3 (37.8 nM), megalin M2 titrated
[5] = molecular target: T2, complex of vitamin D binding protein with 25-hydroxyvitamin D2 (DBP:25(OH)VD2) (human, UniProt P02774 17-474); assay: MST, NT-647-labelled DBP (50 nM) mixed with 25(OH)VD2 (37.8 nM), megalin M2 titrated
T2 construct: Same protein as m4; 50 nM NT-647-labelled DBP was mixed with 37.8 nM metabolite; also called DBP-VD2
T2 sequence (looked up): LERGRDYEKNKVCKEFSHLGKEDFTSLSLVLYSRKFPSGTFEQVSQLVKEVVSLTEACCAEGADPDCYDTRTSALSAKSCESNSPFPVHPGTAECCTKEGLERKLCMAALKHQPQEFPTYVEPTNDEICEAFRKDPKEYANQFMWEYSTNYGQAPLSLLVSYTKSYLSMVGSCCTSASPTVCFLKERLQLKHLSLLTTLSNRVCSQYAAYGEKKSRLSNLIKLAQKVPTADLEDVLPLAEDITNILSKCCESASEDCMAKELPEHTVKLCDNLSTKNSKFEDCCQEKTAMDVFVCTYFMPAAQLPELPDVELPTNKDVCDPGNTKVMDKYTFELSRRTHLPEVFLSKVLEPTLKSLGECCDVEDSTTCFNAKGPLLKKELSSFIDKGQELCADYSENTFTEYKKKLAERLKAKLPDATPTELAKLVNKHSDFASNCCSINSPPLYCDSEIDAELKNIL

[6] = molecular target: B3; assay: MST, NT-647-labelled DBP (50 nM) with VD3 (50 nM), megalin fragment titrated
[7] = molecular target: T3, complex of vitamin D binding protein with the 3C-epimer of 25(OH)D3 (human, UniProt P02774 17-474); assay: microscale thermophoresis; NT-647-labelled DBP (50 nM) mixed with the vitamin D metabolite (37.8 nM), here 3epi25(OH)VD3; purified megalin M2 titrated
T3 construct: Same protein as m4, occupied by the epimer; also called DBP:3-epi-25(OH)D3
T3 sequence (looked up): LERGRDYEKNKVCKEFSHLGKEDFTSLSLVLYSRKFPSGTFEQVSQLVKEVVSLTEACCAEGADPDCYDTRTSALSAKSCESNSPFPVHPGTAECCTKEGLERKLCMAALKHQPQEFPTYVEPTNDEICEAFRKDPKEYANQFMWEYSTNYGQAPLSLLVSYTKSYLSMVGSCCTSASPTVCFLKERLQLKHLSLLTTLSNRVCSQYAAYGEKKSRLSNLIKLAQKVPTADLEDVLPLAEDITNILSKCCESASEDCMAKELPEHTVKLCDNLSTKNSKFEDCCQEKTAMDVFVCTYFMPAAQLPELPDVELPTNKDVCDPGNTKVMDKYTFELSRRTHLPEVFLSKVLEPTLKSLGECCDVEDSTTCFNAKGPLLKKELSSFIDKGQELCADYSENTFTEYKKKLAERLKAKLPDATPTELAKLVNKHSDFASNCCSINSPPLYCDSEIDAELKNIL

[8] = molecular target: B2; assay: MST, NT-647-labelled DBP (50 nM), megalin fragment titrated, absence of 25-OH vitamin D3; microscale thermophoresis; NT-647-labelled DBP, purified soluble M2 titrated 0.488-1000 nmol/L; absence of 25-OH vitamin D3
[9] = molecular target: T4, complex of vitamin D binding protein with 24,25-dihydroxyvitamin D (DBP-24,25VD) (human, UniProt P02774 17-474); assay: MST, NT-647-labelled DBP (50 nM) mixed with 24,25VD (37.8 nM), megalin M2 titrated
T4 construct: Same protein as m4; 50 nM NT-647-labelled DBP was mixed with 37.8 nM metabolite; also called DBP:24,25(OH)VD
T4 sequence (looked up): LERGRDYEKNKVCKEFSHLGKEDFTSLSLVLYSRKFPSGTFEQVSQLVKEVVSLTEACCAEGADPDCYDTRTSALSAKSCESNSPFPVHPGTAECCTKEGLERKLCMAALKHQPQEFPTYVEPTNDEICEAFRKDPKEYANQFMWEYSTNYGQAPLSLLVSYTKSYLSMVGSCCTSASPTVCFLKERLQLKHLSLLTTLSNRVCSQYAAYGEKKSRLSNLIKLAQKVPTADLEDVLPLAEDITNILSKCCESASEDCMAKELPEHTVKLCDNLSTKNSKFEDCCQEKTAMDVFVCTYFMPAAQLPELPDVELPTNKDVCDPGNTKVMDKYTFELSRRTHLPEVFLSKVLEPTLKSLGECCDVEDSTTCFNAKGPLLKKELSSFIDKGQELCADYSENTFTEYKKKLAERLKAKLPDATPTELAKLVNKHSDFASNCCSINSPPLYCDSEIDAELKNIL

[10] = molecular target: T5, Human Albumin-His-tag (human, UniProt P02768 25-609); assay: peptide array of megalin M2 region; major binding epitopes of megalin ligands
T5 construct: not shown: His-tag
T5 sequence (P02768 25-609 limits assumed): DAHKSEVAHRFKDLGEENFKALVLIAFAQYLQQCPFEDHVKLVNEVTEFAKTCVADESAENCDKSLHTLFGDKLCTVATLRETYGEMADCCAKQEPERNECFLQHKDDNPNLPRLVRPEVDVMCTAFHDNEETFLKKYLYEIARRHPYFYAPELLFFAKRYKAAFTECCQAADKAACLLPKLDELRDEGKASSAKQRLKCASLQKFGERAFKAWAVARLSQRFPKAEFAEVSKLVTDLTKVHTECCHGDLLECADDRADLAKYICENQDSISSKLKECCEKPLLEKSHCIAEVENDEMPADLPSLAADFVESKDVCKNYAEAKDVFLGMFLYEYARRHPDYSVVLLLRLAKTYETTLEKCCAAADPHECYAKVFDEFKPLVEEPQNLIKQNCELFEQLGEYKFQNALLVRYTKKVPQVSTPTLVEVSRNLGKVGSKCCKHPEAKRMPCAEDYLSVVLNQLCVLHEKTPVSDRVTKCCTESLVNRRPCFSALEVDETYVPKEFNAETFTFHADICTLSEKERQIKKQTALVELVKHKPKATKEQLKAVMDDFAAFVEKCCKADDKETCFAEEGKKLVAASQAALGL

[11] = molecular target: Human C1q (human, UniProt P02745 23-245; P02746 28-253; P02747 29-245); assay: as above
Human C1q, sequence (P02745 23-245 limits assumed, chain 1 of 3): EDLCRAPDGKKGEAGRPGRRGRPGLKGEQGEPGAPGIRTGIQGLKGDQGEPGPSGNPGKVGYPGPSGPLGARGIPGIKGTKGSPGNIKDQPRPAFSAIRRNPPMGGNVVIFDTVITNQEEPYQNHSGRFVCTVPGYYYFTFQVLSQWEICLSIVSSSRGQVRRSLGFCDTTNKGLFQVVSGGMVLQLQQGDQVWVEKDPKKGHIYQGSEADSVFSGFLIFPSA
Human C1q, sequence (P02746 28-253 limits assumed, chain 2 of 3): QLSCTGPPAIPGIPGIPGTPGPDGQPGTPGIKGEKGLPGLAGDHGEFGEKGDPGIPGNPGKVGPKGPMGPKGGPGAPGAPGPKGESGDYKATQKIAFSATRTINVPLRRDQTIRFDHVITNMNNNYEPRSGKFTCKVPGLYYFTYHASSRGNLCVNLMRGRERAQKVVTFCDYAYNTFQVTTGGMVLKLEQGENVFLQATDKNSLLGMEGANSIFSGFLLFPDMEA
Human C1q, sequence (P02747 29-245 limits assumed, chain 3 of 3): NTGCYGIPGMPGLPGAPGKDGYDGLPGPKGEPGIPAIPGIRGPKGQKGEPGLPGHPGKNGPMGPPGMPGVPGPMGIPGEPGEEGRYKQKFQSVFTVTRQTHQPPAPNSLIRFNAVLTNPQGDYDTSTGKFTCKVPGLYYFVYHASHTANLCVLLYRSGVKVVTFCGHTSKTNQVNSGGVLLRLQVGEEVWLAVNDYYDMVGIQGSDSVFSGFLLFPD

- Kd [1]: 18.1 nM
B1: DBP-1,25(OH)VD3 complex (ligand)
chain: LERGRDYEKNKVCKEFSHLGKEDFTSLSLVLYSRKFPSGTFEQVSQLVKEVVSLTEACCAEGADPDCYDTRTSALSAKSCESNSPFPVHPGTAECCTKEGLERKLCMAALKHQPQEFPTYVEPTNDEICEAFRKDPKEYANQFMWEYSTNYGQAPLSLLVSYTKSYLSMVGSCCTSASPTVCFLKERLQLKHLSLLTTLSNRVCSQYAAYGEKKSRLSNLIKLAQKVPTADLEDVLPLAEDITNILSKCCESASEDCMAKELPEHTVKLCDNLSTKNSKFEDCCQEKTAMDVFVCTYFMPAAQLPELPDVELPTNKDVCDPGNTKVMDKYTFELSRRTHLPEVFLSKVLEPTLKSLGECCDVEDSTTCFNAKGPLLKKELSSFIDKGQELCADYSENTFTEYKKKLAERLKAKLPDATPTELAKLVNKHSDFASNCCSINSPPLYCDSEIDAELKNIL
modifications: The protein carries the red fluorescent dye NT-647 (positions not stated). 1,25(OH)2 vitamin D3 is bound non-covalently and cannot be written in letters. It is a natural glycoprotein.
notes: also called DBP:1,25(OH)2D3

Binder: B2
- binding result [2]: no binding (tested: DBP 0,5 µg)

Binder: B3
- binding result [2]: no binding (tested: DBP 0,5 µg with VD3 0,2 µg)

- binding result [3]: binds
B4: Human RAP (ligand, UniProt P30533 35-357, looked up)
chain: YSREKNQPKPSPKRESGEEFRMEKLNQLWEKAQRLHLPPVRLAELHADLKIQERDELAWKKLKLDGLDEDGEKEARLIRNLNVILAKYGLDGKKDARQVTSNSLSGTQEDGLDDPRLEKLWHKAKTSGKFSGEELDKLWREFLHHKEKVHEYNVLLETLSRTEEIHENVISPSDLSDIKGSVLHSRHTELKEKLRSINQGLDRLRRVSHQGYSTEAEFEEPRVIDLWDLAQSANLTDKELEAFREELKHFEAKIEKHNHYQKQLEIAHEKLRHAESVGDGERVSRSREKHALLEGRTKELGYTVKKHLQDLSGRISRARHNEL

Binder: B5
- Kd [4]: 33.7 nM
- Kd [5]: 160 nM
- Kd [6]: 23.7 nM
- Kd [7]: 5.86 nM
- Kd [8]: 134 nM
- Kd [9]: 171 nM
- binding result [10]: binds
- binding result [11]: binds

— patent US20240319212A1 (IMMUNDIAGNOSTIK, published 2024)
